Experimental findings from paper doi:10.1101/2021.09.02.458712 are described below.

The assay addresses GFP-LL5β (-ADA) (UniProt Q86SQ0). Nature of the assay: co-IP.
Sequence of UniProt Q86SQ0 (Q86SQ0 whole entry): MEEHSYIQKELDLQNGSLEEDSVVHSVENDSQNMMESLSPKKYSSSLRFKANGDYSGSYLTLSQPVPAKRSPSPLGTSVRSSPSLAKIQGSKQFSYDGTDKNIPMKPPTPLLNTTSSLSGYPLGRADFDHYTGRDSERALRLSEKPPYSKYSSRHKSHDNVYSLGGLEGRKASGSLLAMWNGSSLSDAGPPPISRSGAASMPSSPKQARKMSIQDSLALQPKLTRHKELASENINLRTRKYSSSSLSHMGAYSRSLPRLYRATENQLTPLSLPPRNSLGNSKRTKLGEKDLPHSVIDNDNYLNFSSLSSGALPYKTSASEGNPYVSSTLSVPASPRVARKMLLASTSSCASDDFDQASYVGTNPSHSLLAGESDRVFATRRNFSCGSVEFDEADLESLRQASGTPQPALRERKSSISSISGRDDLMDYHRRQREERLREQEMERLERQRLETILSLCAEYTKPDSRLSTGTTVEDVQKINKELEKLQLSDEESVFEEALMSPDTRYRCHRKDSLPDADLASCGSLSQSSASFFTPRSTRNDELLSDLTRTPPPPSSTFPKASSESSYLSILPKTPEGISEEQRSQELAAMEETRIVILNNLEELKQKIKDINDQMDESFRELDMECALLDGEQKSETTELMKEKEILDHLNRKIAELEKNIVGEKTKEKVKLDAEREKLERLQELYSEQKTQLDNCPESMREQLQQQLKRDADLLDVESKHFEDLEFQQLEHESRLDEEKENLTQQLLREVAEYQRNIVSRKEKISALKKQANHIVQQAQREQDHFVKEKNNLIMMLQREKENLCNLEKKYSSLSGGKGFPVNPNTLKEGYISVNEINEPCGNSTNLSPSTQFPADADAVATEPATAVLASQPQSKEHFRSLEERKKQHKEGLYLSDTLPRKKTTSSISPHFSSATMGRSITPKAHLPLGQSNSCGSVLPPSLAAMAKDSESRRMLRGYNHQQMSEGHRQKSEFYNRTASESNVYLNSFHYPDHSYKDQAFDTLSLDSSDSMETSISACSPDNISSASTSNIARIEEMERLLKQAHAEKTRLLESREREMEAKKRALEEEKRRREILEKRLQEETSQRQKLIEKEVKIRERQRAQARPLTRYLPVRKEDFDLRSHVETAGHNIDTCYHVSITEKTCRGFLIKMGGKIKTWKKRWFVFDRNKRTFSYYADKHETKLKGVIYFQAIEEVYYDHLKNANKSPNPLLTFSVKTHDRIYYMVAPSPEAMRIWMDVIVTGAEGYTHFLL

B1: endogenous CLASP2 (natural protein)
chain: MAMGDDKSFDDEESVDGNRPSSAASAFKVPAPKTSGNPANSARKPGSAGGPKVGGASKEGGAGAVDEDDFIKAFTDVPSIQIYSSRELEETLNKIREILSDDKHDWDQRANALKKIRSLLVAGAAQYDCFFQHLRLLDGALKLSAKDLRSQVVREACITVAHLSTVLGNKFDHGAEAIVPTLFNLVPNSAKVMATSGCAAIRFIIRHTHVPRLIPLITSNCTSKSVPVRRRSFEFLDLLLQEWQTHSLERHAAVLVETIKKGIHDADAEARVEARKTYMGLRNHFPGEAETLYNSLEPSYQKSLQTYLKSSGSVASLPQSDRSSSSSQESLNRPFSSKWSTANPSTVAGRVSAGSSKASSLPGSLQRSRSDIDVNAAAGAKAHHAAGQSVRSGRLGAGALNAGSYASLEDTSDKLDGTASEDGRVRAKLSAPLAGMGNAKADSRGRSRTKMVSQSQPGSRSGSPGRVLTTTALSTVSSGVQRVLVNSASAQKRSKIPRSQGCSREASPSRLSVARSSRIPRPSVSQGCSREASRESSRDTSPVRSFQPLASRHHSRSTGALYAPEVYGASGPGYGISQSSRLSSSVSAMRVLNTGSDVEEAVADALKKPARRRYESYGMHSDDDANSDASSACSERSYSSRNGSIPTYMRQTEDVAEVLNRCASSNWSERKEGLLGLQNLLKNQRTLSRVELKRLCEIFTRMFADPHGKRVFSMFLETLVDFIQVHKDDLQDWLFVLLTQLLKKMGADLLGSVQAKVQKALDVTRESFPNDLQFNILMRFTVDQTQTPSLKVKVAILKYIETLAKQMDPGDFINSSETRLAVSRVITWTTEPKSSDVRKAAQSVLISLFELNTPEFTMLLGALPKTFQDGATKLLHNHLRNTGNGTQSSMGSPLTRPTPRSPANWSSPLTSPTNTSQNTLSPSAFDYDTENMNSEDIYSSLRGVTEAIQNFSFRSQEDMNEPLKRDSKKDDGDSMCGGPGMSDPRAGGDATDSSQTALDNKASLLHSMPTHSSPRSRDYNPYNYSDSISPFNKSALKEAMFDDDADQFPDDLSLDHSDLVAELLKELSNHNERVEERKIALYELMKLTQEESFSVWDEHFKTILLLLLETLGDKEPTIRALALKVLREILRHQPARFKNYAELTVMKTLEAHKDPHKEVVRSAEEAASVLATSISPEQCIKVLCPIIQTADYPINLAAIKMQTKVIERVSKETLNLLLPEIMPGLIQGYDNSESSVRKACVFCLVAVHAVIGDELKPHLSQLTGSKMKLLNLYIKRAQTGSGGADPTTDVSGQS
Take B1: the fold decrease of association against GFP-LL5β was 2 fold.
